Measured values as given in publication doi:10.1101/2022.11.30.518472.
One block for each substance: values may come before it.

What was measured:
[1] = molecular target: Uso1 CCD-His6x (pET21b-Uso1 CCD-His6x), coiled-coil domain (CC + CTR) (Aspergillus nidulans); experiment: AUC + other: dynamic light scattering
[2] = molecular target: Bos1-GST (pET21b-Bos1-GST), cytoplasmic domain of Bos1 (Aspergillus nidulans); experiment: pull-down
[3] = molecular target: Uso1(E6K/G540S)-His6x, full length (pET21b-Uso1(E6K/G540S)-His6x) (Aspergillus nidulans); experiment: AUC + other: dynamic light scattering
[4] = molecular target: Uso1(E6K/G540S)ΔCTR-His6x (pET21b-Uso1(E6K/G540S)ΔCTR-His6x) (Aspergillus nidulans); experiment: AUC + other: dynamic light scattering
[5] = molecular target: Uso1-HA3, full length, native protein of Aspergillus (Aspergillus nidulans); experiment: SEC
[6] = molecular target: Uso1-His6x, full length (pET21b-Uso1-His6x) (Aspergillus nidulans); experiment: SEC
[7] = molecular target: Bet1-GST (pET21b-Bet1-GST), cytoplasmic domain of Bet1 (Aspergillus nidulans); experiment: pull-down
[8] = molecular target: Uso1-His6x, full length (pET21b-Uso1-His6x) (Aspergillus nidulans); experiment: AUC + other: dynamic light scattering
[9] = molecular target: Uso1ΔCTR-His6x (pET21b-Uso1ΔCTR-His6x) (Aspergillus nidulans); experiment: AUC + other: dynamic light scattering

Substance: Uso1(E6K/G540S)-His6x, full length (pET21b-Uso1(E6K/G540S)-His6x) (natural protein)
fold increase of the protein retained, against wild-type Uso1 [2]: 5 fold | stoichiometry N [3]: 2

Substance: Uso1(E6K/G540S)ΔCTR-His6x (pET21b-Uso1(E6K/G540S)ΔCTR-His6x) (domain or fragment)
stoichiometry N [4]: 2

The remaining lines, values ahead:

stoichiometry N [1]: 2
Substance: Uso1 CCD-His6x (pET21b-Uso1 CCD-His6x), coiled-coil domain (CC + CTR) (domain or fragment)

stoichiometry N [5]: 2
Substance: Uso1-HA3, full length, native protein of Aspergillus (natural protein)

stoichiometry N [6]: 2 | percent of the prey pulled down [7]: 70% | stoichiometry N [8]: 2
Substance: Uso1-His6x, full length (pET21b-Uso1-His6x) (natural protein)

stoichiometry N [9]: 2
Substance: Uso1ΔCTR-His6x (pET21b-Uso1ΔCTR-His6x) (domain or fragment)
